Laboratory results: patent EP1034789A1

Columns and labels:
[1] = target: cellular receptor of fMLP (human); assay: 3H-fMLP bound to cells, Exp. 1, no inhibitor
[2] = target: cellular receptor of fMLP (human); assay: 3H-fMLP bound to cells, Exp. 1, with unlabeled fMLP
[3] = target: cellular receptors of MIP-1α on primary human monocytes and THP-1 cells (human); assay: 125I-MIP-1α bound to THP-1 cells, Exp. 3, 6500X excess unlabeled MIP-1α (background control)
[4] = target: cellular receptors of MIP-1α on primary human monocytes and THP-1 cells (human); assay: 125I-MIP-1α bound to primary human monocytes, Exp. 2, no inhibitor
[5] = target: cellular receptors of MIP-1α on primary human monocytes and THP-1 cells (human); assay: 125I-MIP-1α bound to primary human monocytes, Exp. 2, 6500X excess unlabeled MIP-1α (background control)
[6] = target: cellular receptors of MIP-1α on primary human monocytes and THP-1 cells (human); assay: 125I-MIP-1α bound to primary human monocytes, Exp. 1, 6500X excess unlabeled MIP-1α (background control)
[7] = target: cellular receptors of MIP-1α on primary human monocytes and THP-1 cells (human); assay: 125I-MIP-1α bound to human monocytic cells, Exp. 1, 6500X molar excess unlabeled MIP-1α (background control)
[8] = target: cellular receptors of MIP-1α on primary human monocytes and THP-1 cells (human); assay: 125I-MIP-1α bound to human monocytic cells, Exp. 1, no inhibitor
[9] = target: cellular receptors of MIP-1α on primary human monocytes and THP-1 cells (human); assay: 125I-MIP-1α bound to primary human monocytes, Exp. 1, no inhibitor
[10] = target: cellular receptors of MIP-1α on primary human monocytes and THP-1 cells (human); assay: 125I-MIP-1α bound to THP-1 cells, Exp. 3, no inhibitor

Substance	Surface Bound fMLP [1]	Surface Bound fMLP [2]	Surface Bound MIP-1α [3]	Surface Bound MIP-1α [4]	Surface Bound MIP-1α [5]	Surface Bound MIP-1α [6]	Surface Bound MIP-1α [7]	Surface Bound MIP-1α [8]	Surface Bound MIP-1α [9]	Surface Bound MIP-1α [10]
fMLP (peptide)	374 cpm	132 cpm	–	–	–	–	–	–	–	–
human MIP-1α (from UniProt P10147 24-92) (ligand)	–	–	1040 cpm	7710 cpm	410 cpm	470 cpm	444 cpm	12200 cpm	4700 cpm	9940 cpm
